In PMC6353898, “A Rational Approach for Creating Peptides Mimicking Antibody Binding” (Scientific Reports, 2019) one finds Kd data, which are given here for 3 molecules.

As a reminder, the Kd is the equilibrium constant for the complex coming apart.

This test addresses EGFR recombinant human protein (human) (UniProt P00533). Put plainly: SPR; EGFR (20 µg/mL) or BSA (20 µg/mL) covalently attached (EDC/NHS) to a carboxymethylated dextran chip; peptides injected as analytes at 15 µL/min; 25 °C; PBS with 0.01% Tween 20, pH 7.4; global fit, 1:1 Langmuir model with mass transport; KD from koff/kon. In general terms: SPR reads the build-up and loss of mass on a sensor chip optically.
WSGENGPGYFDYEA (designed binder) [Pep6]: the Kd amounted to 4800 nM.

On to WSGENGPGFYDYEA (designed binder) [Pep11], for which the dissociation constant (Kd) worked out at 252 nM.

WSGENGPGTFYDYEA (designed binder) [Pep22]: the Kd was 595 nM.
